Measured values reported in paper PMC7718258.

Legend:
[1] = molecular target: T1, mjCgi121;mjBud32;mjKae1;pfPcc1 (Methanocaldococcus jannaschii;Methanocaldococcus jannaschii;Methanocaldococcus jannaschii;Pyrococcus furiosus) (UniProt Q57646+Q58530+Q58530+Q9V1Z9); experiment: fluorescence polarization; details: 20 mM HEPES pH 7.5, 100 mM NaCl, 2 mM DTT; filter binding 50 nM 32P-tRNA, 1 h, room temperature; FP 50 nM 647-CCA; NMR 25 C with 10% D2O
T1 sequence 1: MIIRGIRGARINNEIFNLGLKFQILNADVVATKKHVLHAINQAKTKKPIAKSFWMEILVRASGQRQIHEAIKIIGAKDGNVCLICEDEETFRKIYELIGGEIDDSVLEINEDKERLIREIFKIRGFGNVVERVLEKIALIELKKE
T1 sequence 2: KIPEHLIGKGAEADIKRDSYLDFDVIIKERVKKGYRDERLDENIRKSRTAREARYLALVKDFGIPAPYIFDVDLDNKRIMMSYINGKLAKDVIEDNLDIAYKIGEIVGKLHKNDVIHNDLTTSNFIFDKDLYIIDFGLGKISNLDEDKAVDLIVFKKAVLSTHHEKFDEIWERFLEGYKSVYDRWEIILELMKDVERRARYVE
T1 sequence 3: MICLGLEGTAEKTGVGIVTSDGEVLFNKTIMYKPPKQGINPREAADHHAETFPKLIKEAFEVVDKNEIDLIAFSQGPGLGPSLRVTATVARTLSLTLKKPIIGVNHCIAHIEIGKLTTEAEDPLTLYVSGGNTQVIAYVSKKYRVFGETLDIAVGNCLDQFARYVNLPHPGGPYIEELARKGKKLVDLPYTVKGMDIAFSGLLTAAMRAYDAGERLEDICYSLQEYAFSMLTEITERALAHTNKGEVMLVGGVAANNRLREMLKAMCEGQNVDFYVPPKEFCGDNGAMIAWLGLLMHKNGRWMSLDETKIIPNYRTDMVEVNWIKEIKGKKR
T1 sequence 4: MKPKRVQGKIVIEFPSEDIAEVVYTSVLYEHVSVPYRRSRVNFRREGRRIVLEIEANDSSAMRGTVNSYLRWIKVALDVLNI

[2] = molecular target: T2, mjCgi121;mjBud32 (Methanocaldococcus jannaschii;Methanocaldococcus jannaschii) (UniProt Q57646+Q58530); experiment: competition; details: displacement of 647-CCA (FP), 0.8 uM protein; 20 mM HEPES pH 7.5, 100 mM NaCl, 2 mM DTT; filter binding 50 nM 32P-tRNA, 1 h, room temperature; FP 50 nM 647-CCA; NMR 25 C with 10% D2O
T2 sequence 1: T1 sequence 1
T2 sequence 2: T1 sequence 2

[3] = molecular target: mjCgi121;mjBud32 E152R (Methanocaldococcus jannaschii;Methanocaldococcus jannaschii) (UniProt Q57646); experiment: competition; details: displacement of 647-CCA (FP), 0.8 uM protein; 20 mM HEPES pH 7.5, 100 mM NaCl, 2 mM DTT; filter binding 50 nM 32P-tRNA, 1 h, room temperature; FP 50 nM 647-CCA; NMR 25 C with 10% D2O
[4] = molecular target: mjCgi121;mjBud32 R60E (Methanocaldococcus jannaschii;Methanocaldococcus jannaschii) (UniProt Q57646); experiment: competition; details: displacement of 647-CCA (FP), 0.8 uM protein; 20 mM HEPES pH 7.5, 100 mM NaCl, 2 mM DTT; filter binding 50 nM 32P-tRNA, 1 h, room temperature; FP 50 nM 647-CCA; NMR 25 C with 10% D2O
[5] = molecular target: T3, mjCgi121 (Methanocaldococcus jannaschii) (UniProt Q57646); experiment: competition; details: displacement of 647-CCA (FP); 20 mM HEPES pH 7.5, 100 mM NaCl, 2 mM DTT; filter binding 50 nM 32P-tRNA, 1 h, room temperature; FP 50 nM 647-CCA; NMR 25 C with 10% D2O
T3 sequence: T1 sequence 1

CCGCCA [647-CCA]
Kd [1]: 263 nM

mjtRNALysUUU
IC50 [2]: 1200 nM | IC50 [3]: 600 nM | IC50 [4]: 7600 nM

mjtRNAValCAC
binding signal (fold less efficient than mjtRNALys) [5]: 7.3
